The values that follow come from patent US20140086935A1 (Bayer, published 2014).

Residue numbers refer to the chain shown, from its start.

Experiment [1] concerns the target T1, rat TIMP-1 (rat, UniProt P30120 24-217). Description: SPR (BIAcore), TIMP-1 coupled to chip, monovalent Fab. How it is done: For affinity determination, monomeric fractions of affinity and SEC purified Fab fragments or purified IgG1 molecules were used. All experiments were conducted in HBS buffer at a flow rate of 20 μl/min at 25° C. on a BIAcore™ instrument. Antigens in 100 mM sodium acetate pH 5.0 were coupled to a CM 5 sensor chip using standard EDC-NHS coupling chemistry. […] All sensograms were fitted globally using BIA evaluation software. For monovalent Fab fragments a monovalent fit (Langmuir binding) and for IgGs a bivalent fit was applied.

The target in experiment [2] is T1, rat TIMP-1. The experiment in a line: cell-based or functional assay.

T1 sequence (P30120 24-217 limits assumed): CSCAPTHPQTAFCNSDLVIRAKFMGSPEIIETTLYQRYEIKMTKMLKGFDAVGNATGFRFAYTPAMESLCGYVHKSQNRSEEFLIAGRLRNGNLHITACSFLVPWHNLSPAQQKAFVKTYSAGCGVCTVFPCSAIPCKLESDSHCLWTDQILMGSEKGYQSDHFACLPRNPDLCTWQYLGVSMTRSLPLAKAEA

B1: MS-BW-13 (Fab, V domains shown)
VH: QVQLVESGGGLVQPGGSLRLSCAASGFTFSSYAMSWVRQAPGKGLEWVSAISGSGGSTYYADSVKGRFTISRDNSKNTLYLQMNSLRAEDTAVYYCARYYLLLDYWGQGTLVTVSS
VL: DIELTQPPSVSVAPGQTARISCSGDALGDKYASWYQQKPGQAPVLVIYDDSDRPSGIPERFSGSNSGNTATLTISGTQAEDEADYYCQSWDIHPFDVVFGGGTKLTVLG
notes: Fab, FLAG + Strep-tag II; not tied by name
For the molecule B1, the Kd in experiment [1] was approximately 939 nM.

B2: MS-BW-7 (Fab, V domains shown)
VH: QVQLVQSGAEVKKPGSSVKVSCKASGGTFSSYAISWVRQAPGQGLEWMGGIIPIFGTANYAQKFQGRVTITADESTSTAYMELSSLRSEDTAVYYCARTYYYFDSWGQGTLVTVSS
VL: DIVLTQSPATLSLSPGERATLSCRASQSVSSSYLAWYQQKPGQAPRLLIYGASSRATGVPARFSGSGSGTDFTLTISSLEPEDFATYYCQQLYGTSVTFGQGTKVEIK
Regarding B2, the “IC50 in rat protease assay” value in experiment [2] was more than 300 nM. Besides, in experiment [1], the Kd is approximately 168 nM.

B3: MS-BW-6 (Fab, V domains shown)
VH: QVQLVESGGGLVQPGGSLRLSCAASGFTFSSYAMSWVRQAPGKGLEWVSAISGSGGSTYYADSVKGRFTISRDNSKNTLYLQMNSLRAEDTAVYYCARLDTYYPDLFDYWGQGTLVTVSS
VL: DIVLTQPPSVSGAPGQRVTISCSGSSSNIGSNYVSWYQQLPGTAPKLLIYDNNQRPSGVPDRFSGSKSGTSASLAITGLQSEDEADYYCQSYDQRKWVFGGGTKLTVLG
notes: as for B1
On to B3, for which the “IC50 in rat protease assay” value in experiment [2] is approximately 100 nM. The molecule also gave a dissociation constant (Kd) in experiment [1] of approximately 68 nM.

B4: MS-BW-10 (Fab, V domains shown)
VH: QVQLVQSGAEVKKPGASVKVSCKASGYTFTSYYMHWVRQAPGQGLEWMGWINPNSGGTNYAQKFQGRVTMTRDTSISTAYMELSSLRSEDTAVYYCARLVGIVGYKPDELLYFDVWGQGTLVTVSS
VL: DIELTQPPSVSVAPGQTARISCSGDALGDKYASWYQQKPGQAPVLVIYDDSDRPSGIPERFSGSNSGNTATLTISGTQAEDEADYYCQSYDYSLLVFGGGTKLTVLG
notes: as for B1
Take B4: the “IC50 in rat protease assay” value in experiment [2] was approximately 30 nM. Also, the Kd in experiment [1] is approximately 200 nM.

B5: MS-BW-11 (Fab, V domains shown)
VH: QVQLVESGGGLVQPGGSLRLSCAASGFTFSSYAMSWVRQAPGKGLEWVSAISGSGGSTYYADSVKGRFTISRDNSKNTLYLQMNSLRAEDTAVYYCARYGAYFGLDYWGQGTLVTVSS
VL: B4 VL with Y92F, S93N, L94F, L95H
notes: as for B1
For the molecule B5, the “IC50 in rat protease assay” value in experiment [2] is more than 300 nM. Besides, the equilibrium dissociation constant (Kd) in experiment [1] is approximately 200 nM.

B6: MS-BW-58 (Fab, V domains shown)
VH: QVQLQQSGPGLVKPSQTLSLTCAISGDSVSSNSAAWNWIRQSPGRGLEWLGRTYYRSKWYNDYAVSVKSRITINPDTSKNQFSLQLNSVTPEDTAVYYCARWMTPPGHYYGYTFDVWGQGTLVTVSS
VL: DIELTQPPSVSVAPGQTARISCSGDALGDKYASWYQQKPGQAPVLVIYDDSDRPSGIPERFSGSNSGNTATLTISGTQAEDEADYYCQSWDPSHYYVFGGGTKLTVLG
notes: as for B1
Regarding B6, the Kd in experiment [1] is approximately 138 nM.

B7: MS-BW-9 (Fab, V domains shown)
VH: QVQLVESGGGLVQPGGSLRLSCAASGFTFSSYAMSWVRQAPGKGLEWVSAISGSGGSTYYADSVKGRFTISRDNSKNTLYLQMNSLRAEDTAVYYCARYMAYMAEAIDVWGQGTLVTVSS
VL: DIVLTQPPSVSGAPGQRVTISCSGSSSNIGSNYVSWYQQLPGTAPKLLIYDNNQRPSGVPDRFSGSKSGTSASLAITGLQSEDEADYYCQSYDGFKTHVFGGGTKLTVLG
notes: as for B1
For the molecule B7, the “IC50 in rat protease assay” value in experiment [2] is more than 300 nM. Also, the equilibrium dissociation constant (Kd) in experiment [1] is approximately 256 nM.

B8: MS-BW-5 (Fab, V domains shown)
VH: QVQLVQSGAEVKKPGSSVKVSCKASGGTFSSYAISWVRQAPGQGLEWMGGIIPIFGTANYAQKFQGRVTITADESTSTAYMELSSLRSEDTAVYYCARGLYWAVYPYFDFWGQGTLVTVSS
VL: B7 VL with Y92R, G94F, F95N, K96R, T97G, H98P
notes: as for B1
B8 gave a Kd in experiment [1] of approximately 210 nM.

B9: MS-BW-12 (Fab, V domains shown)
VH: QVQLQQSGPGLVKPSQTLSLTCAISGDSVSSNSAAWNWIRQSPGRGLEWLGRTYYRSKWYNDYAVSVKSRITINPDTSKNQFSLQLNSVTPEDTAVYYCARGYADISFDYWGQGTLVTVSS
VL: DIALTQPASVSGSPGQSITISCTGTSSDVGGYNYVSWYQQHPGKAPKLMIYDVSNRPSGVSNRFSGSKSGNTASLTISGLQAEDEADYYCQSYDMIARYPVFGGGTKLTVLG
notes: as for B1
With B9, the “IC50 in rat protease assay” value in experiment [2] is more than 300 nM. For the same molecule, the Kd in experiment [1] is approximately 419 nM.

B10: MS-BW-15 (Fab, V domains shown)
VH: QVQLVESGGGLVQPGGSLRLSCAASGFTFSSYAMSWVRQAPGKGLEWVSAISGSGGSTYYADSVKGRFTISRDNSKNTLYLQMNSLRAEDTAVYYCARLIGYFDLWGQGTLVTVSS
VL: DIALTQPASVSGSPGQSITISCTGTSSDVGGYNYVSWYQQHPGKAPKLMIYDVSNRPSGVSNRFSGSKSGNTASLTISGLQAEDEADYYCQSYDVLDSEVFGGGTKLTVLG
notes: as for B1
With B10, the “IC50 in rat protease assay” value in experiment [2] is approximately 200 nM. The molecule further showed a dissociation constant Kd in experiment [1] of approximately 80 nM.
